Patent publication US20230041071A1 (NATIONAL INSTITUTE OF BIOLOGICAL SCIENCES BEIJING, published 2023)
Changes are numbered by the printed parent chain.

T1: hAREG-EGFd-mFc (human; mouse, UniProt P15514 142-184)
T1 construct: Expressed in 293F cells; not shown: Fc fragment of mouse IgG2a
T1 chain: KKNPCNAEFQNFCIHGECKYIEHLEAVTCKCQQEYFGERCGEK

T2: hAREG-98aa (human, UniProt P15514 101-198)
T2 construct: Bought protein
T2 sequence (looked up): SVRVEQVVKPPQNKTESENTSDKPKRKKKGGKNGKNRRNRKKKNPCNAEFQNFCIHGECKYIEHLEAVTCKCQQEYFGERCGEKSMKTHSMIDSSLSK

B1: hu9C12v1 (antibody, V domains shown)
VH: EVQLVESGGGLVKPGGSLRLSCAASGFTFSSYPMSWVRQAPGKGLEWVSTISTGGTYTYYPDSVKGRFTISRDNAKNSLYLQMNSLRAEDTAVYYCARQGPIYYGNYYYAMDYWGQGTTVTVSS
VL: DIVMTQSPLSLPVTLGQPASISCRSSQSLVHSDGNTYLHWYQQRPGQSPKLLIYKVSNRFSGVPDRFSGSGSGTDFTLKISRVEAEDVGVYYCSQSTHVPYTFGGGTKVEIK
notes: Humanized 9C12; captured by anti-human Fc in SPR
B2: hu9C12v5 (antibody, V domains shown)
VH: B1 VH with G42E, Y103L, Y104R, G105K, A110G, Y113V
VL: B1 VL with I2V, Q17D, H31D, S32G, D33Q, G34D, N35G, S61D, G105Q, V109L
notes: Humanized 9C12 variant; captured by anti-human Fc in SPR
B3: ch9C12 (antibody, V domains shown)
VH: EVKLVESGGGLVKPGGSLKLSCAASGFTFSSYPMSWVRQTPEKRLEWVATISTGGTYTYYPDSVKGRFTISRDNAKNTLYLQMSSLRSEDTAMYYCARQGPIYYGNYYYAMDYWGQGTSVTVSS
VL: B1 VL with S7P, T14S, Q17D, P18Q, Q42L, V88L, Y92F, V109L
notes: also called chimeric 9C12
B4: hu1H9v1 (antibody, V domains shown)
VH: EVQLVESGGGLVKPGGSLRLSCAASGFTFSGYPMSWVRQAPGKGLEWVSTISTGARHTYYPDSVKGRFTISRDNAKNSLYLQMNSLRAEDTAVYYCARHEGLRRGKYHSIMDYWGQGTLVTVSS
VL: DIVLTQSPASLAVSPGQRATITCRASESVDYDGDSFINWYQQKPGQPPKLLIYAASNKDTGVPARFSGSGSGTDFTLTINPVEAEDTANYYCHQSNEDPYMFGQGTKLEIK
notes: Humanized 1H9; captured by anti-human Fc in SPR
B5: hu1H9v4 (antibody, V domains shown)
VH: B4 VH
VL: DIQMTQSPSSLSASVGDRVTITCRASQSIDYDGDSFLNWYQQKPGKAPKLLIYAASNLQSGVPSRFSGSGSGTDFTLTISSLQPEDFATYYCQQSNEDPYVFGQGTKLEIK
notes: as for B4
B6: hu1H9v5 (antibody, V domains shown)
VH: B4 VH
VL: DIVMTQSPDSLAVSLGERATINCKSSQSIDYDGDSFLNWYQQKPGQPPKLLIYAASNRESGVPDRFSGSGSGTDFTLTISSLQAEDVAVYYCQQSNEDPYVFGQGTKLEIK
notes: as for B4
B7: hu1H9v2 (antibody, V domains shown)
VH: B4 VH
VL: B4 VL with M101L
notes: as for B4
B8: hu1H9v3 (antibody, V domains shown)
VH: B4 VH
VL: B4 VL with M101V
notes: Humanized 1H9
B9: ch23H8 (antibody, V domains shown)
VH: EVQLQESGGGLVKPGGSLKLSCAASGFTFNSYAMSWVRQTPEKRLEWVATISTGGSHTYYPDSVKGRFTISRDNAKNTLYLQMSSLRSEDTAMYYCARHGYLLYDGYYEWYFDVWGAGTTVTVSS
VL: DIVLTQSPASLAVSLGQRATISCKASQSVDYDGHSFLNWYQQKPGQPPKLLIYAASNLESGLPARFSGSGSGTDFTLNIHPVEEEDAATYYCQQSTEDPPYTFGGGTKLEIK
notes: also called chimeric 23H8
B10: ch1H9 (antibody, V domains shown)
VH: EVKLMESGGDLVKPGGSLKLSCVASGFTFSGYPMSWVRQTPEKRLEWVATISTGARHTYYPDSVKGRFTISRDNAKNTLYLQMSSLRSEDTAMYYCARHEGLRRGKYHCIMDYWGQGTSVTVSS
VL: DILLTQSPASLAVSLGQRATISCKASQSIDYDGDSFLNWYQQKPGQPPKLLIYAASNLESGIPARFSGSGSGTDFTLNIHPVEEEDAATYYCHQCNEDPYMFGGGTKLEIR
notes: also called chimeric 1H9
B11: hu23H8v1 (antibody, V domains shown)
VH: EVQLVESGGGLVKPGGSLRLSCAASGFTFNSYAMSWVRQAPGKGLEWVSTISTGGSHTYYPDSVKGRFTISRDNAKNSLYLQMNSLRAEDTAVYYCARHGYLLYDGYYEWYFDYWGQGTLVTVSS
VL: DIVLTQSPASLAVSPGQRATITCRASESVDYDGHSFINWYQQKPGQPPKLLIYAASNKDTGVPARFSGSGSGTDFTLTINPVEAEDTANYYCQQSTEDPPYTFGQGTKLEIK
notes: Humanized 23H8; captured by anti-human Fc in SPR
B12: hu23H8v3 (antibody, V domains shown)
VH: B11 VH
VL: DIVMTQSPDSLAVSLGERATINCKSSQSVDYDGHSFLNWYQQKPGQPPKLLIYAASNRESGVPDRFSGSGSGTDFTLTISSLQAEDVAVYYCQQSTEDPPYTFGQGTKLEIK
notes: as for B11
B13: hu23H8v2 (antibody, V domains shown)
VH: B11 VH
VL: DIQMTQSPSSLSASVGDRVTITCRASQSVDYDGHSFLNWYQQKPGKAPKLLIYAASNLQSGVPSRFSGSGSGTDFTLTISSLQPEDFATYYCQQSTEDPPYTFGQGTKLEIK
notes: as for B11
B14: hu23H8v6 (antibody, V domains shown)
VH: B11 VH with N30S, D62E, D105E
VL: B12 VL with D32E, D98N
notes: Humanized 23H8 variant
B15: hu23H8v4 (antibody, V domains shown)
VH: B11 VH with N30S, D62E, D105E
VL: B11 VL
notes: Humanized 23H8 variant; captured by anti-human Fc in SPR
B16: hu23H8v5 (antibody, V domains shown)
VH: B11 VH with N30S, D62E, D105E
VL: B13 VL with D32E, D98N
notes: Humanized 23H8 variant

Molecular target: T1, hAREG-EGFd-mFc
Assay: SPR, Biacore T200; mAb captured on anti-human Fc chip, antigen in solution
Procedure: (§1) To evaluate affinities of different mouse hybridoma mAbs or their humanized and engineered variants, SPR measurement was performed using Biacore T200 instrument. mAbs were captured on anti-human Fc CM5 biosensor chip surface, hAREG-EGFd-mFc, mAREG-EGFd-mFc or hAREG-98aa (purchased from PeproTech, cat #100-55B) in serial dilutions were injected over antibody-bound surface, followed by a dissociation phase. Association rates (Ka) and dissociation rates (Kd) were calculated using the one-to-one Langmuir binding model (BIA Evaluation Software, GE Life Sciences). The equilibrium dissociation constant (KD) was calculated as the ratio kd/ka.
For B1, the Kd was 1 nM, the koff was 0.000572 s⁻¹ and the kon was 570000 M⁻¹ s⁻¹.
In the case of B2, the Kd is reported as 0.852 nM, the koff is reported as 0.000411 s⁻¹ and the kon is reported as 483000 M⁻¹ s⁻¹.
For B3, the Kd was 1.71 nM, the koff was 0.001 s⁻¹ and the kon was 587000 M⁻¹ s⁻¹.
In the case of B4, the Kd is reported as 0.799 nM, the koff is reported as 0.000233 s⁻¹ and the kon is reported as 291000 M⁻¹ s⁻¹.
In the case of B5, the Kd is reported as 0.758 nM, the koff is reported as 0.000184 s⁻¹ and the kon is reported as 243000 M⁻¹ s⁻¹.
In the case of B6, the Kd is reported as 0.811 nM, the koff is reported as 0.000206 s⁻¹ and the kon is reported as 254000 M⁻¹ s⁻¹.
Binder B7 has a Kd of 0.762 nM, a koff of 0.000229 s⁻¹ and a kon of 301000 M⁻¹ s⁻¹.
B8 gave a Kd of 0.969 nM, a koff of 0.000259 s⁻¹ and a kon of 267000 M⁻¹ s⁻¹.
For B9, the Kd was 0.75 nM, the koff was 0.000313 s⁻¹ and the kon was 418000 M⁻¹ s⁻¹.
With B10 the Kd was 1.31 nM.
B11 showed a Kd of 0.205 nM, a koff of 0.000214 s⁻¹ and a kon of 1.05e+06 M⁻¹ s⁻¹.
B12 showed a Kd of 0.178 nM, a koff of 0.000213 s⁻¹ and a kon of 1.2e+06 M⁻¹ s⁻¹.
Binder B13 has a Kd of 0.244 nM, a koff of 0.000249 s⁻¹ and a kon of 1.02e+06 M⁻¹ s⁻¹.
Binder B14 has a Kd of 0.309 nM, a koff of 0.000246 s⁻¹ and a kon of 803000 M⁻¹ s⁻¹.
With B15 the Kd was 0.336 nM, the koff was 0.000276 s⁻¹ and the kon was 821000 M⁻¹ s⁻¹.
With B16 the Kd was 0.565 nM, the koff was 0.000348 s⁻¹ and the kon was 628000 M⁻¹ s⁻¹.

The binders below were run against T2, hAREG-98aa in the same assay as above.
Procedure: as §1
With B2 the Kd was 0.349 nM, the koff was 0.00283 s⁻¹ and the kon was 8.11e+06 M⁻¹ s⁻¹.
With B14 the Kd was 0.537 nM and the kon was 1.11e+06 M⁻¹ s⁻¹.
